This note sets out measurements from patent US20120093830A1 (published 2012).

The target in one experiment is cynomolgus IL-13 (cynomolgus, UniProt Q0PW92 21-132). In words: cell-based or functional assay.
Experiment [1] addresses T1, human IL-13 (human, UniProt P35225 35-146). Description: cell-based or functional assay.
The target of experiment [2] is T1, human IL-13. Description: IL-13 sandwich ELISA (IL-13 binding to the capture antibody inhibited); block 4; sample #16 (2.6 mg/mL in PBS), material remaining in the cup after LC+ jet nebuliser. The procedure: (§1) The plate was then incubated with TMB substrate (KPL, Gaithersburg, USA), and the reaction was stopped by the addition of HCl and the absorbance read at 450 nm.
(§2) Nebulisation was performed for approximately 3 minutes. 100 uL of protein samples (diluted to 1 mg/mL) were injected onto the SEC (TSKgel G2000SWXL, Tosoh Biosciences, Germany) column. The protein separation on SEC was performed at 0.5 mL/min for 45 minutes. PBS (phosphate buffered saline)+10% EtOH was used as mobile phase. The detection of eluting proteinaceous material was carried by on-line detection by UV (Abs 280 nm & 215 nm). […] The optimum MMAD is 3 μm and for deep lung delivery the desirable respirable fraction is the highest percentage of particles <5 μm. The LC+ (Pari) Jet nebuliser gives the better MMAD: MMAD values are lower when the buffer contains PEG; MMAD decreases as protein concentration increases.

Experiment [3] deals with T1, human IL-13. Description: IL-13 sandwich ELISA: dAb dilution series mixed with IL-13, binding of IL-13 to the coating (capture) antibody detected; block 2 of the table, sample not nebulised. The procedure: as §1, §2
A general note: In an ELISA, binding on a coated surface is turned into a signal by an enzyme label.

For experiment [4], the target named is T1, human IL-13. Description: IL-13 sandwich ELISA: dAb dilution series mixed with IL-13, binding of IL-13 to the coating (capture) antibody detected; block 3 of the table, sample not nebulised. The procedure: as §1, §2
Experiment [5] has as its target T1, human IL-13. In words: IL-13 sandwich ELISA (IL-13 binding to the capture antibody inhibited); block 2; sample #14 (2.3 mg/ml, 25 mM sodium phosphate pH 7.5, 7% PEG1000, 1.2% sucrose), aerosolised material after LC+ jet nebuliser. The procedure: as §1, §2
The target in experiment [6] is T1, human IL-13. In words: IL-13 sandwich ELISA (IL-13 binding to the capture antibody inhibited); block 2; sample #15 (4.7 mg/mL, 25 mM sodium phosphate pH 7.5, 7% PEG1000, 1.2% sucrose), aerosolised material after E-flow vibrating mesh nebuliser. The procedure: as §1, §2
Experiment [7] addresses T1, human IL-13. Description: IL-13 sandwich ELISA (IL-13 binding to the capture antibody inhibited); block 2; sample #15 (4.7 mg/mL, 25 mM sodium phosphate pH 7.5, 7% PEG1000, 1.2% sucrose), material remaining in the cup after E-flow vibrating mesh nebuliser. The procedure: as §1, §2
Experiment [8] has as its target T1, human IL-13. In words: IL-13 sandwich ELISA: dAb dilution series mixed with IL-13, binding of IL-13 to the coating (capture) antibody detected; block 4 of the table, sample not nebulised. The procedure:
as §1, §2

In experiment [9] the target is T1, human IL-13. In words: IL-13 sandwich ELISA: dAb dilution series mixed with IL-13, binding of IL-13 to the coating (capture) antibody detected; block 1 of the table, sample not nebulised. Here is the method:
as §1, §2

Experiment [10] concerns the target T1, human IL-13. In words: IL-13 sandwich ELISA (IL-13 binding to the capture antibody inhibited); block 3; sample #15 (4.7 mg/mL, 25 mM sodium phosphate pH 7.5, 7% PEG1000, 1.2% sucrose), aerosolised material after LC+ jet nebuliser. The procedure:
as §1, §2

In experiment [11] the target is T1, human IL-13. In words: IL-13 sandwich ELISA (IL-13 binding to the capture antibody inhibited); block 3; sample #15 (4.7 mg/mL, 25 mM sodium phosphate pH 7.5, 7% PEG1000, 1.2% sucrose), material remaining in the cup after LC+ jet nebuliser. Here is the method:
as §1, §2

Experiment [12] deals with T1, human IL-13. In words: IL-13 sandwich ELISA (IL-13 binding to the capture antibody inhibited); block 4; sample #16 (2.6 mg/mL in PBS), aerosolised material after E-flow vibrating mesh nebuliser. Here is the method:
as §1, §2

The target of experiment [13] is T1, human IL-13. In words: IL-13 sandwich ELISA (IL-13 binding to the capture antibody inhibited); block 1; sample #14 (2.3 mg/ml, 25 mM sodium phosphate pH 7.5, 7% PEG1000, 1.2% sucrose), material remaining in the cup after LC+ jet nebuliser. Here is the method:
as §1, §2

In experiment [14] the target is T1, human IL-13. Description: IL-13 sandwich ELISA (IL-13 binding to the capture antibody inhibited); block 3; sample #16 (2.6 mg/mL in PBS), material remaining in the cup after E-flow vibrating mesh nebuliser. Here is the method:
as §1, §2

For experiment [15], the target named is T1, human IL-13. In words: IL-13 sandwich ELISA (IL-13 binding to the capture antibody inhibited); block 4; sample #16 (2.6 mg/mL in PBS), aerosolised material after LC+ jet nebuliser. The procedure:
as §1, §2

Experiment [16] deals with T1, human IL-13. In words: IL-13 sandwich ELISA (IL-13 binding to the capture antibody inhibited); block 1; sample #14 (2.3 mg/ml, 25 mM sodium phosphate pH 7.5, 7% PEG1000, 1.2% sucrose), aerosolised material after E-flow vibrating mesh nebuliser. Here is the method:
as §1, §2

Experiment [17] concerns the target T1, human IL-13. In words: IL-13 sandwich ELISA: dAb dilution series mixed with IL-13, binding of IL-13 to the coating (capture) antibody detected; block 2 of the table, standard.
Experiment [18] concerns the target T1, human IL-13. In words: IL-13 sandwich ELISA: dAb dilution series mixed with IL-13, binding of IL-13 to the coating (capture) antibody detected; block 3 of the table, standard.
Experiment [19] addresses T1, human IL-13. In words: IL-13 sandwich ELISA: dAb dilution series mixed with IL-13, binding of IL-13 to the coating (capture) antibody detected; block 4 of the table, standard.
The target of experiment [20] is T1, human IL-13. Description: IL-13 sandwich ELISA: dAb dilution series mixed with IL-13, binding of IL-13 to the coating (capture) antibody detected; block 1 of the table, standard.

Residue numbers refer to the chain shown, from its start. Where “and” joins values, the source holds several entries; their conditions need not be identical. Identical values can stand only once.

T1 sequence (P35225 35-146 limits assumed): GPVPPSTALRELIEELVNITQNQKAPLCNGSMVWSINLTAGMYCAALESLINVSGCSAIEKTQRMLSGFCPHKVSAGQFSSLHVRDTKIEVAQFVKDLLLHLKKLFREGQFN
Chain of cynomolgus IL-13 (Q0PW92 entry or part of it): as the sequence (P35225 35-146 limits assumed) above, with G1S, R10K, M42V, S67N, H83R, L100V counted along it

B1: DOM10-275-78 (single domain antibody (dAb), V domains shown)
VH: EVQLLESGGGLVQPGGSLRLSCVASGFTFDVAEMDWVRQAPGKGLEWVSTISPSRRGTYYADSVKGRFTISRDNSKNTLYLQMNSLRAEDTAVYYCAKAYTGRSLWGPGTLVTVSS
Consider B1, for which, in the experiment with cynomolgus IL-13, the “EC50, FIG. 1B: inhibition of cynomolgus IL-13 (3 ng/ml) stimulated alkaline phosphatase production in HEK STAT6 cells” value is 1.37 nM. Also, the “EC50, FIG. 1A: inhibition of human IL-13 (3 ng/ml) stimulated alkaline phosphatase production in HEK STAT6 cells” value in the experiment with human IL-13 [1] is 2.42 nM and 2.65 nM.

B2: DOM10-53-474 (single domain antibody (dAb), V domains shown)
VH: GVQLLESGGGLVQPGGSLRLSCAASGFTFAWYDMGWVRQAPGKGLEWVSSIDWHGEVTYYADSVKGRFTISRDNSKNTLYLQMNSLRAEDTAVYYCATAEDEPGYDYWGQGTLVTVSS
notes: Soluble anti-IL-13 domain antibody monomer (immunoglobulin single variable domain); also called anti-IL-13 dAb
Usually IC50 stands for the concentration needed to halve the response being measured. A low value points to greater potency in that assay. For the molecule B2, the concentration for half-maximal inhibition (IC50) with human IL-13 [2] was found to be 0.0339 nM; in the experiment with human IL-13 [3], 0.0356 nM; in the experiment with human IL-13 [4], 0.0289 nM; with human IL-13 [5], 0.0348 nM; in the experiment with human IL-13 [6], 0.0185 nM; in the experiment with human IL-13 [7], 0.0214 nM. Further, the half-maximal inhibitory concentration (IC50) turned out to be 0.0269 nM with human IL-13 [8]; 0.0458 nM with human IL-13 [9]; 0.0149 nM in the experiment with human IL-13 [10]; 0.0129 nM in the experiment with human IL-13 [11]; 0.0351 nM in the experiment with human IL-13 [12]; 0.0317 nM in the experiment with human IL-13 [13]. In addition, the half-maximal inhibitory concentration (IC50) was 0.0224 nM in the experiment with human IL-13 [14], 0.023 nM with human IL-13 [15] and 0.0322 nM in the experiment with human IL-13 [16]. Moreover, the “EC50, FIG. 1B: inhibition of cynomolgus IL-13 (3 ng/ml) stimulated alkaline phosphatase production in HEK STAT6 cells” value with cynomolgus IL-13 was found to be 10.8 nM. For the same molecule, the “EC50, FIG. 1A: inhibition of human IL-13 (3 ng/ml) stimulated alkaline phosphatase production in HEK STAT6 cells” value with human IL-13 [1] stood at 0.72 nM.

B3: DOM10-53-344 (Std) (single domain antibody (dAb), V domains shown)
VH: B2 VH with T28I
In the case of B3, the IC50 with human IL-13 [17] came out at 0.125 nM; with human IL-13 [18] it was 0.0455 nM; with human IL-13 [19], 0.0671 nM; with human IL-13 [20], 0.0716 nM.
